The source of these data is US20090285813A1 (MMRGLOBAL, published 2009).

Test [1] concerns the target T1, human CD20 (human, UniProt P11836 1-297).
T1 construct: whole, on cells; Target always presented on cells; also called CD20 antigen
T1 sequence (looked up): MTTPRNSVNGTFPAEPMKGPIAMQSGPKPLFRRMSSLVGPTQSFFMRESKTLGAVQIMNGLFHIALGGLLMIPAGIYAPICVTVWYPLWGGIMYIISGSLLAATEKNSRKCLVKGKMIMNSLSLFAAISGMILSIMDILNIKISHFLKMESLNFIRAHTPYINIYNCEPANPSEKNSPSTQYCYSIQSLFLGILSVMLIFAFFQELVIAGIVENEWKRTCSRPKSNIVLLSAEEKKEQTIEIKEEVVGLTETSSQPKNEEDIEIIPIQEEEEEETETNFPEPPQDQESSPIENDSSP
The test can be described thus: anti-CD20 cellular ELISA, supernatant; rank 4 of 29. In general terms: ELISA stands for enzyme-linked immunosorbent assay.

The target in test [2] is T1, human CD20. The test can be described thus: anti-CD20 cellular ELISA, supernatant; rank 8 of 29.
Test [3] addresses T1, human CD20. The test can be described thus: anti-CD20 cellular ELISA, supernatant; rank 2 of 29.
Test [4] deals with T1, human CD20. The test can be described thus: anti-CD20 cellular ELISA, supernatant; rank 5 of 29.
The target of test [5] is T1, human CD20. The test can be described thus: anti-CD20 cellular ELISA, supernatant; rank 6 of 29.
Test [6] deals with T1, human CD20. Briefly: anti-CD20 cellular ELISA, supernatant; rank 1 of 29.
The target in test [7] is T1, human CD20. The test can be described thus: anti-CD20 cellular ELISA, supernatant; rank 7 of 29.
The target in test [8] is T1, human CD20. Briefly: anti-CD20 cellular ELISA, supernatant; rank 3 of 29.

B1: anti-CD20 HuFR variant 4 (light chain BD22088, heavy chain BD20337) (antibody, human IgG1, kappa)
heavy: not shown
light: DIVMTQSPLSLPVTPGEPASISCRASSSLSFMHWYQQKPGQPPKLLIYATSNLASGVPSRFSGSGSGTDFTFTISSLQPEDIATYYCHQWSSNPLTFGQGTKVEIKRTVAAPSVFIFPPSDEQLKSGTASVVCLLNNFYPREAKVQWKVDNALQSGNSQESVTEQDSKDSTYSLSSTLTLSKADYEKHKVYACEVTHQGLSSPVTKSFNRGEC
notes: Full-length IgG, unpurified HEK-293 supernatant; also called LC & HC combination 4
For B1, the binding result in the test with human CD20 [1] is “binds”.

B2: anti-CD20 HuFR variant 8 (light chain BD22095, heavy chain BD20337) (antibody, human IgG1, kappa)
heavy: not shown
light: EIVMTQSPATLSVSPGERATLSCRASSSLSFMHWYQQKPGQPPKLLIYATSNLASGVPSRFSGSGSGTDFTFTISSLQPEDIATYYCHQWSSNPLTFGQGTKVEIKRTVAAPSVFIFPPSDEQLKSGTASVVCLLNNFYPREAKVQWKVDNALQSGNSQESVTEQDSKDSTYSLSSTLTLSKADYEKHKVYACEVTHQGLSSPVTKSFNRGEC
notes: Full-length IgG, unpurified HEK-293 supernatant; also called LC & HC combination 8
As for B2, the binding result with human CD20 [2] is “binds”.

B3: anti-CD20 HuFR variant 2 (light chain BD22085, heavy chain BD20335) (antibody, human IgG1, kappa, V domains shown)
VH: QVQLVQSGAEVKKPGASVKVSCKASGYTFTSYNMHWVRQAPGKGLEWMGAIYPGNGDTSYNQKFKGRFTISRDNAKNSLYLQMNSLRAEDTAVYYCARSHYGSNYVDYFDYWGQGTLVTVSS
VL: DIVMTQSPDSLAVSLGERATINCRASSSLSFMHWYQQKPGQAPRLLIYATSNLASGVPSRFSGSGSGTDFTLTISSLQPEDFATYYCHQWSSNPLTFGQGTKVEIKR
notes: Full-length IgG, unpurified HEK-293 supernatant; also called LC & HC combination 2
On to B3, for which the binding result in the test with human CD20 [3] was “binds”.

B4: anti-CD20 HuFR variant 5 (light chain BD22087, heavy chain BD20335) (antibody, human IgG1, kappa, V domains shown)
VH: QVQLVQSGAEVKKPGASVKVSCKASGYTFTSYNMHWVRQAPGKGLEWMGAIYPGNGDTSYNQKFKGRFTISRDNAKNSLYLQMNSLRAEDTAVYYCARSHYGSNYVDYFDYWGQGTLVTVSS
VL: EIVLTQSPGTLSLSPGERATLSCRASSSLSFMHWYQQKPGKAPKLLIYATSNLASGVPSRFSGSGSGTEFTLTISSLQPDDFATYYCHQWSSNPLTFGQGTKVEIKR
notes: Full-length IgG, unpurified HEK-293 supernatant; also called LC & HC combination 5
On to B4, for which the binding result in the test with human CD20 [4] is “binds”.

B5: anti-CD20 HuFR variant 6 (light chain BD22089, heavy chain BD20335) (antibody, human IgG1, kappa, V domains shown)
VH: QVQLVQSGAEVKKPGASVKVSCKASGYTFTSYNMHWVRQAPGKGLEWMGAIYPGNGDTSYNQKFKGRFTISRDNAKNSLYLQMNSLRAEDTAVYYCARSHYGSNYVDYFDYWGQGTLVTVSS
VL: EIVLTQSPATLSLSPGERATLSCRASSSLSFMHWYQQKPGQPPKLLIYATSNLASGVPSRFSGSGSGTDFTFTISSLQPEDIATYYCHQWSSNPLTFGQGTKVEIKR
notes: Full-length IgG, unpurified HEK-293 supernatant; also called LC & HC combination 6
Regarding B5, the binding result in the test with human CD20 [5] is recorded as “binds”.

B6: anti-CD20 HuFR variant 1 (light chain BD22084, heavy chain BD20332) (antibody, human IgG1, kappa, V domains shown)
VH: QVQLVQSGAEVKKPGASVKVSCKASGYTFTSYNMHWVRQAPGKGLEWVGAIYPGNGDTSYNQKFKGRVTISADKSISTAYLQWSSLKASDTAMYYCARSHYGSNYVDYFDYWGQGTLVTVSS
VL: DIVMTQSPLSLPVTPGEPASISCRASSSLSFMHWYQQKPGQPPKLLIYATSNLASGIPARFSGSGSGTDFTLTISSLEPEDFAVYYCHQWSSNPLTFGQGTKVEIKR
notes: Full-length IgG, unpurified HEK-293 supernatant; also called LC & HC combination 1
B6: the binding result with human CD20 [6] is given as “binds”.

B7: anti-CD20 HuFR variant 7 (light chain BD22090, heavy chain BD20337) (antibody, human IgG1, kappa, V domains shown)
VH: QVQLVQSGAEVKKPGASVKVSCKASGYTFTSYNMHWVRQAPGQGLEWMGAIYPGNGDTSYNQKFKGRVTISADKSISTAYLQWSSLKASDTAMYYCARSHYGSNYVDYFDYWGQGTLVTVSS
VL: DIVMTQSPLSLPVTPGEPASISCRASSSLSFMHWYLQKPGQSPQLLIYATSNLASGVPDRFSGSGSGTDFTLKISRVEAEDVGVYYCHQWSSNPLTFGQGTKVEIKR
notes: Full-length IgG, unpurified HEK-293 supernatant; also called LC & HC combination 7
In the case of B7, the binding result with human CD20 [7] is “binds”.

B8: anti-CD20 HuFR variant 3 (light chain BD22086, heavy chain BD20335) (antibody, human IgG1, kappa, V domains shown)
VH: QVQLVQSGAEVKKPGASVKVSCKASGYTFTSYNMHWVRQAPGKGLEWMGAIYPGNGDTSYNQKFKGRFTISRDNAKNSLYLQMNSLRAEDTAVYYCARSHYGSNYVDYFDYWGQGTLVTVSS
VL: DIVMTQSPLSLPVTPGEPASISCRASSSLSFMHWYQQKPGQAPRLLIYATSNLASGVPDRFSGSGSGTDFTLTISSLQAEDVAVYYCHQWSSNPLTFGQGTKVEIKR
notes: Full-length IgG, unpurified HEK-293 supernatant; also called LC & HC combination 3
With B8, in the test with human CD20 [8], the binding result is recorded as “binds”.
